Experimental data published in patent US20070092444A1, “Inhibition of inward sodium currents in cancer” (priority 2003, published 2007).
Read-outs that look alike come from different tables or passages of the source.

Assays:
[1] = molecular target: T1, ASIC1 (recombinant: in vitro translated in proteoliposomes, expressed in Xenopus oocytes, reconstituted in planar lipid bilayers) (UniProt P78348); assay: cell-based or functional assay
T1 sequence (looked up): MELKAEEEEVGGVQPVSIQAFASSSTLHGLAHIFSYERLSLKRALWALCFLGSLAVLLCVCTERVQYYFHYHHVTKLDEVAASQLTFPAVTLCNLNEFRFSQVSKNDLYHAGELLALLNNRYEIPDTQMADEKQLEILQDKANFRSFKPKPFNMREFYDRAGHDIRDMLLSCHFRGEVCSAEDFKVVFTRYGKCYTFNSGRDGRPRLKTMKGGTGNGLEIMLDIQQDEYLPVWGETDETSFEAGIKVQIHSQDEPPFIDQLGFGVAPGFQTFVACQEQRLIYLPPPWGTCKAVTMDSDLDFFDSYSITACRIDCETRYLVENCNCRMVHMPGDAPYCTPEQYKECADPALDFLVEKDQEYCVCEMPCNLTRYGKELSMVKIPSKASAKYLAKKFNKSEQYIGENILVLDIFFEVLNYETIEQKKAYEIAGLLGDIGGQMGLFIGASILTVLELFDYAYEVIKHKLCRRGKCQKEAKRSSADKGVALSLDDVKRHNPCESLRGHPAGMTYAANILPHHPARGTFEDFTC

[2] = molecular target: T1, ASIC1 (recombinant: in vitro translated in proteoliposomes, expressed in Xenopus oocytes, reconstituted in planar lipid bilayers)
[3] = molecular target: ASIC1+ASIC2+γ-hENaC heteromeric channel (co-expressed in Xenopus oocytes; oocyte membrane vesicles in planar lipid bilayers) (human) (UniProt P78348); assay: cell-based or functional assay
primary GBM cultures = assay: Transwell Migration Assay, primary GBM cultures; assay type: cell-based, human; conditions: 3 h, vitronectin
Procedure: Approximately 10,000 cells were added to the upper side of a filter insert perforated with 5-8 μm holes, and induced to migrate through these pores toward the extracellular matrix protein vitronectin (coated on the underside of the filter). PcTX1 or control scrambled PcTX1 peptide was added to each compartment at the same time as the cells. BSA-coated filter inserts were used as negative controls. After 3 h, cells were fixed with 4% paraformaldehyde, and subsequently stained with crystal violet. Cells were counted on an inverted microscope, averaging five fields per Transwell chamber. Four-to-ten chambers were used under each condition.

ASIC1 [4] = molecular target: T2, ASIC1 (Homo sapiens, UniProt P78348); assay: Acid-activated currents in voltage-clamped Xenopus oocytes expressing ASIC1; assay type: cell-based; conditions: 1 nM peptide (FIG. 20); pHo 4.0; −60 mV
T2 sequence (P78348 1-528): T1 sequence (looked up)
Text: FIGS. 8A-C show acid-activated ASIC currents in Xenopus oocytes. ASIC 2 (FIG. 8A), ASIC1 (FIG. 8B) and the combination of ASIC2 and ASIC1 (FIG. 8C) were examined. […] Each oocyte served as its own control.
(§1) Membrane potential was held at −60 mV, and the pHo was step decreased to 4.0 for 10 s, and then returned to 7.4 for 30 s before repeating the sequence.
Xenopus oocytes were used to express ASIC1 and ASIC2 mRNA individually and in combination. Oocyte preparation, cRNA injection, and two-electrode voltage clamp recordings were performed as described (33,67-69).
as §1

U87-MG cells = assay: Transwell Migration Assay, U87-MG cells; assay type: cell-based, human; conditions: 3 h, vitronectin
D54-MG glioma cells = assay: Transwell Migration Assay, D54-MG cells; assay type: cell-based, human; conditions: 3 h, vitronectin
Procedure: 5-8 μm polycarbonate Transwell filters were coated on the lower surface with or vitronectin ([…] in PBS). […] of D54MG cells (400,000 cells/ml were added to the upper chamber), in the presence or absence of benzamil, and migration was allowed to proceed for 3 hours. Migration was determined according to standard procedures (120). N-amidino-3,5-diamino-pyrazinecarboxamide was used as a control.
To begin to investigate the role of the inward Na^+ conductance in the invasive behavior of tumor cells, a Transwell Migration Assay was used to assess cell chemotaxis and invasiveness (FIG. 17). D54-MG cells were plated on the upper side of a filter insert perforated with 5-8 μm holes, and induced to migrate through these pores toward the extracellular matrix protein vitronectin (coated on the underside of the filter). Benzamil, at 10, 20, 50, or 100 μM, was added to both chambers at time 0. After a 3 h migration time, cells were fixed, stained with crystal violet, and counted. BSA-coated filter inserts were used as negative controls. […]
Approximately 10,000 cells were added to the upper side of a filter insert perforated with 5-8 μm holes, and induced to migrate through these pores toward the extracellular matrix protein vitronectin (coated on the underside of the filter). […] Cells were counted on an inverted microscope, averaging five fields per Transwell chamber. […]

[5] = test system: constitutive amiloride-sensitive inward Na^+ current in high-grade glioma (GBM) cells; assay: Whole-cell patch clamp, freshly resected and primary cultured high-grade glioma (Grade III/IV, GBM) cells; assay type: cell-based, human; conditions: 10 nM peptide; freshly resected GBM
Text: FIGS. 2A-C show representative whole-cell patch clamp recordings.
FIGS. 4A and B show summary I-V curves of freshly resected normal astrocytes (FIG. 4A) and GBM cells (FIG. 4B). Inward currents (−60 mV) were −7.5±1.2 pA (normal) and −43.8±14.5 pA (GBM). Outward currents (+40 mV) averaged 42.2±2.4 pA and 47.2±12.5 pA for normal and GBMs, respectively. FIGS. 4C and D show summary amiloride-sensitive (difference) currents of freshly resected normal astrocytes (FIG. 4C) and GBM cells (FIG. 4D).
A constitutive amiloride-sensitive inward Na^+ conductance has been reported in human high-grade glioma cells. […] These inward Na^+ currents were not present in normal astrocytes or in low-grade astrocytomas (e.g., pilocytic astrocytomas). However, the composition of the channels responsible for the inward Na^+ conductance has not been reported. FIGS. 2A-C show representative whole cell patch-clamp measurements on tissue derived from a freshly resected human glioblastoma multiforme (GBM; WHO grade IV), normal astrocytes obtained from patients undergoing surgery for intractable epilepsy, and primary cultures of different grade glial tumors. […] However, there was no significant inward Na^+ current in normal astrocytes and Grades I and II astrocytoma cells (FIG. 2C).
Summary current-voltage (I-V) curves are presented for normal astrocytes and GBM cells in FIG. 4A and FIG. 4B, respectively, while difference I-V curves for normal astrocytes and GBM cells are presented in FIG. 4C and FIG. 4D, respectively. The GBM cells are depolarized by an average of 31 mV compared to the normal astrocytes under these recording conditions. The depolarized zero current membrane potential is due to the presence of an enhanced Na^+ conductance as is shown in the difference I-V curves.
(§2) FIG. 19A show representative whole-cell patch clamp recordings of ZR-75-1 and SKMEL-2 cells in the basal state.

[6] = test system: inward Na^+ currents in SK-MG cells; assay: Whole-cell patch clamp, SK-MG glioma cells; assay type: cell-based, human; conditions: 10 nM peptide
Procedure: FIGS. 7A-7C show representative whole-cell patch clamp recordings.
The amiloride-sensitive inward Na^+ currents are measured regardless of whether ASIC2 is absent or present (FIGS. 7A-D). Whole-cell patch clamp recordings were obtained from U87-MG, SK-MG, and D54-MG glioma cells in the basal state. […] This inhibition of the inward current occurred regardless of the absence or presence of ASIC2 mRNA (FIG. 7D) (as detected by RT-PCR as described above).
as §2

ASIC1 [7] = molecular target: T2, ASIC1; assay: Wild-type ASIC1 in planar lipid bilayers, single channel recording; assay type: biochemical; conditions: PKC isoforms
Procedure: An expanded time scale is shown below each trace.
Wild-type ASIC1 incorporated into planar lipid bilayers at neutral pH or at acidic extracellular pH was also examined.
as §1
Control single channel were record for ASIC1 containing channels in bilayers bathed with symmetrical 100 mM NaCl, 10 mM MOPS, pH 6.2. Holding potential was +100 mV referred to the virtually grounded trans chamber. For illustration purposes, data shown were digitally filtered at 100 Hz using pCLAMP software (Axon Instruments) subsequent to acquisition of the analog signal filtered at 300 Hz with an 8-pole Bessel filter before acquisition at 1 ms per point. An expanded time scale is shown below each trace (FIG. 21).
Representative dwell-time histograms were constructed following the events analyses performed using pCLAMP software (Axon Instruments) on single channel recordings of 10 min in duration filtered at 300 Hz with an 8-pole Bessel filter before acquisition at 1 ms per point using pCLAMP software and hardware. The event detection thresholds were 50% in amplitude of transition between closed and open states, and 3 ms in duration. Closed and open time constants shown were determined by fitting the closed and open time histograms to the probability density function (Sigworth and Sine, 1987), and using the Simplex least square routine of pSTAT. Number of bins per decade in all histograms was 16.

[8] = molecular target: T1, ASIC1 (recombinant: in vitro translated in proteoliposomes, expressed in Xenopus oocytes, reconstituted in planar lipid bilayers); assay: cell-based or functional assay; remark: listed apart in the source

## PKCε (enzyme)
[1]
  reversal of the PKCβI+PKCβII inhibition of ASIC1 activity in bilayers (PKCε and PKCζ in combination): 5 fold excess

## PKC holoenzyme
[2]
  ASIC1 activity in planar lipid bilayers: PKC holoenzyme or the combination of PKCβI and PKCβII isoforms inhibited ASIC1.
  in vitro phosphorylation of ASIC1: PKC holoenzyme, PKCβI, PKCβII, PKCδ, PKCε, and PKCζ phosphorylated ASIC1 in vitro.

## PKCε
[2]
  ASIC1 activity in planar lipid bilayers: Neither PKCε, PKCζ, nor their combination had any effect on ASIC1 activity in bilayers.
  in vitro phosphorylation of ASIC1: PKC holoenzyme, PKCβI, PKCβII, PKCδ, PKCε, and PKCζ phosphorylated ASIC1 in vitro.

## PKCβII
[2]
  ASIC1 activity in planar lipid bilayers (PKCβI and PKCβII added in combination): PKC holoenzyme or the combination of PKCβI and PKCβII isoforms inhibited ASIC1.
  in vitro phosphorylation of ASIC1: PKC holoenzyme, PKCβI, PKCβII, PKCδ, PKCε, and PKCζ phosphorylated ASIC1 in vitro.

## PKCβI
[2]
  ASIC1 activity in planar lipid bilayers (PKCβI and PKCβII added in combination): PKC holoenzyme or the combination of PKCβI and PKCβII isoforms inhibited ASIC1.
  in vitro phosphorylation of ASIC1: PKC holoenzyme, PKCβI, PKCβII, PKCδ, PKCε, and PKCζ phosphorylated ASIC1 in vitro.

## Syntaxin 1A GST fusion protein
[3]
  decrease in channel open probability (Po) in planar lipid bilayers, 25 µM syntaxin 1A in the cis chamber: 40%

## scrambled PcTX1 control peptide: 40mer scrambled control peptide having the same amino acid content as PcTX1; SEQ ID NO: 3 (VLEPCKWGFRTCKGEDINCPKVWTRERSKCDCEVKRCHGP; control peptide)
Primary GBM cultures
  diminished ability to migrate through the filter: without effect
ASIC1 [4]
  block of acid-induced inward currents: without effect
U87-MG cells
  diminished ability to migrate through the filter: without effect
D54-MG glioma cells
  diminished ability to migrate through the filter: without effect
[5]
  block of constitutive inward Na^+ current: unaffected
[6]
  block of constitutive inward Na^+ current: unaffected

## PKCδ
[2]
  in vitro phosphorylation of ASIC1: PKC holoenzyme, PKCβI, PKCβII, PKCδ, PKCε, and PKCζ phosphorylated ASIC1 in vitro.

B1: PKCε: PKC isoform (protein, UniProt Q02156 1-737, looked up)
Protein kinase C epsilon type: MVVFNGLLKIKICEAVSLKPTAWSLRHAVGPRPQTFLLDPYIALNVDDSRIGQTATKQKTNSPAWHDEFVTDVCNGRKIELAVFHDAPIGYDDFVANCTIQFEELLQNGSRHFEDWIDLEPEGRVYVIIDLSGSSGEAPKDNEERVFRERMRPRKRQGAVRRRVHQVNGHKFMATYLRQPTYCSHCRDFIWGVIGKQGYQCQVCTCVVHKRCHELIITKCAGLKKQETPDQVGSQRFSVNMPHKFGIHNYKVPTFCDHCGSLLWGLLRQGLQCKVCKMNVHRRCETNVAPNCGVDARGIAKVLADLGVTPDKITNSGQRRKKLIAGAESPQPASGSSPSEEDRSKSAPTSPCDQEIKELENNIRKALSFDNRGEEHRAASSPDGQLMSPGENGEVRQGQAKRLGLDEFNFIKVLGKGSFGKVMLAELKGKDEVYAVKVLKKDVILQDDDVDCTMTEKRILALARKHPYLTQLYCCFQTKDRLFFVMEYVNGGDLMFQIQRSRKFDEPRSRFYAAEVTSALMFLHQHGVIYRDLKLDNILLDAEGHCKLADFGMCKEGILNGVTTTTFCGTPDYIAPEILQELEYGPSVDWWALGVLMYEMMAGQPPFEADNEDDLFESILHDDVLYPVWLSKEAVSILKAFMTKNPHKRLGCVASQNGEDAIKQHPFFKEIDWVLLEQKKIKPPFKPRIKTKRDVNNFDQDFTREEPVLTLVDEAIVKQINQEEFKGFSYFGEDLMP
ASIC1 [7]
  effect on ASIC1 activity in bilayers: Neither PKCε, PKCζ, nor their combination had any effect

B2: PKCζ (enzyme, UniProt Q05513 1-592, looked up, species assumed)
Protein kinase C zeta type: MPSRTGPKMEGSGGRVRLKAHYGGDIFITSVDAATTFEELCEEVRDMCRLHQQHPLTLKWVDSEGDPCTVSSQMELEEAFRLARQCRDEGLIIHVFPSTPEQPGLPCPGEDKSIYRRGARRWRKLYRANGHLFQAKRFNRRAYCGQCSERIWGLARQGYRCINCKLLVHKRCHGLVPLTCRKHMDSVMPSQEPPVDDKNEDADLPSEETDGIAYISSSRKHDSIKDDSEDLKPVIDGMDGIKISQGLGLQDFDLIRVIGRGSYAKVLLVRLKKNDQIYAMKVVKKELVHDDEDIDWVQTEKHVFEQASSNPFLVGLHSCFQTTSRLFLVIEYVNGGDLMFHMQRQRKLPEEHARFYAAEICIALNFLHERGIIYRDLKLDNVLLDADGHIKLTDYGMCKEGLGPGDTTSTFCGTPNYIAPEILRGEEYGFSVDWWALGVLMFEMMAGRSPFDIITDNPDMNTEDYLFQVILEKPIRIPRFLSVKASHVLKGFLNKDPKERLGCRPQTGFSDIKSHAFFRSIDWDLLEKKQALPPFQPQITDDYGLDNFDTQFTSEPVQLTPDDEDAIKRIDQSEFEGFEYINPLLLSTEESV
[8]
  reversal of the PKCβI+PKCβII inhibition of ASIC1 activity in bilayers (PKCε and PKCζ in combination): 5 fold excess
ASIC1 [7]
  effect on ASIC1 activity in bilayers: Neither PKCε, PKCζ, nor their combination had any effect
[2]
  ASIC1 activity in planar lipid bilayers: Neither PKCε, PKCζ, nor their combination had any effect on ASIC1 activity in bilayers.
  in vitro phosphorylation of ASIC1: PKC holoenzyme, PKCβI, PKCβII, PKCδ, PKCε, and PKCζ phosphorylated ASIC1 in vitro.
